Laboratory results from the supplement of paper PMC6757056.
± gives the standard deviation of the averaged measurements.

B1: library; a variant is named by its letters at N, in order (parent)
chain: GCUGUCACCGAGAAACUGUGAAGUAUAUCUUAAACCUGGGCACUUAAAAGAUAUAUGGAGUUAGUAGUGCAACCUGCUCGGUCUGAUGAGUCCNNNNNNGGACGAAACAGC

Legend:
cyclic di-GMP [1] = variants of: B1; experiment: normalized RNA/DNA level without ligand (relative to sTRSVctl = 100) (log10 (% of sTRSVctl)); HEK293T; ligand: cyclic di-GMP (c-di-GMP-II aptamer); higher = less ribozyme self-cleavage, higher mRNA level; details: reporter: mCherry (pCS4076), ligand present: no
Outline: (§1)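 Library plasmids carrying ribozyme switches linked to mCherry, or to eGFP in some ligand experiments, were transfected into HEK293T at 4 µg per 6-well well, with any ligand added 1 h earlier. Seventy-two hours on, total RNA was extracted with EDTA and reverse-transcribed, amplified, barcoded and sequenced. RNA level was RNA over DNA reads normalized to a spiked-in non-cleaving sequence or to the top sequences, then scaled and log-transformed. The top set was 25 sequences, the transform was ×100 and log10, and sequences needed ≥100 DNA reads.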

cyclic di-GMP [2] = variants of: B1; experiment: normalized RNA/DNA level with ligand (relative to sTRSVctl = 100) (log10 (% of sTRSVctl)); HEK293T; ligand: cyclic di-GMP (c-di-GMP-II aptamer); ligand concentration (+) RNA-Seq: 1 mM; higher = less ribozyme self-cleavage, higher mRNA level; details: reporter: mCherry (pCS4076), ligand present: yes
Outline: as §1

Variant	normalized RNA/DNA level without ligand (log10) (cyclic di-GMP [1])	normalized RNA/DNA level with ligand (log10) (cyclic di-GMP [2])
GCUGUCACCGAGAAACUGUGAAGUAUAUCUUAAACCUGGGCACUUAAAAGAUAUAUGGAGUUAGUAGUGCAACCUGCUCGGUCUGAUGAGUCCCGGGGUGGACGAAACAGC	1.72 ± 0.0034	1.83 ± 0.13
GCUGUCACCGAGAAACUGUGAAGUAUAUCUUAAACCUGGGCACUUAAAAGAUAUAUGGAGUUAGUAGUGCAACCUGCUCGGUCUGAUGAGUCCCUAUAGGGACGAAACAGC	1.679 ± 0.012	1.84 ± 0.15
GCUGUCACCGAGAAACUGUGAAGUAUAUCUUAAACCUGGGCACUUAAAAGAUAUAUGGAGUUAGUAGUGCAACCUGCUCGGUCUGAUGAGUCCCAUCGCGGACGAAACAGC	1.783 ± 0.015	1.87 ± 0.043
GCUGUCACCGAGAAACUGUGAAGUAUAUCUUAAACCUGGGCACUUAAAAGAUAUAUGGAGUUAGUAGUGCAACCUGCUCGGUCUGAUGAGUCCAGAUGUGGACGAAACAGC	1.56 ± 0.036	1.77 ± 0.054
GCUGUCACCGAGAAACUGUGAAGUAUAUCUUAAACCUGGGCACUUAAAAGAUAUAUGGAGUUAGUAGUGCAACCUGCUCGGUCUGAUGAGUCCUGCUACGGACGAAACAGC	1.7 ± 0.033	1.85 ± 0.069
GCUGUCACCGAGAAACUGUGAAGUAUAUCUUAAACCUGGGCACUUAAAAGAUAUAUGGAGUUAGUAGUGCAACCUGCUCGGUCUGAUGAGUCCAUUAGGGGACGAAACAGC	1.56 ± 0.065	1.72 ± 0.17
GCUGUCACCGAGAAACUGUGAAGUAUAUCUUAAACCUGGGCACUUAAAAGAUAUAUGGAGUUAGUAGUGCAACCUGCUCGGUCUGAUGAGUCCCUUCCAGGACGAAACAGC	1.61 ± 0.089	1.78 ± 0.085
GCUGUCACCGAGAAACUGUGAAGUAUAUCUUAAACCUGGGCACUUAAAAGAUAUAUGGAGUUAGUAGUGCAACCUGCUCGGUCUGAUGAGUCCCAACACGGACGAAACAGC	1.58 ± 0.028	1.77 ± 0.12
GCUGUCACCGAGAAACUGUGAAGUAUAUCUUAAACCUGGGCACUUAAAAGAUAUAUGGAGUUAGUAGUGCAACCUGCUCGGUCUGAUGAGUCCAUAUGUGGACGAAACAGC	1.623 ± 0.0061	1.8 ± 0.15
GCUGUCACCGAGAAACUGUGAAGUAUAUCUUAAACCUGGGCACUUAAAAGAUAUAUGGAGUUAGUAGUGCAACCUGCUCGGUCUGAUGAGUCCUGAGCUGGACGAAACAGC	1.76 ± 0.0029	1.87 ± 0.1
GCUGUCACCGAGAAACUGUGAAGUAUAUCUUAAACCUGGGCACUUAAAAGAUAUAUGGAGUUAGUAGUGCAACCUGCUCGGUCUGAUGAGUCCACUCGCGGACGAAACAGC	1.73 ± 0.027	1.88 ± 0.15
GCUGUCACCGAGAAACUGUGAAGUAUAUCUUAAACCUGGGCACUUAAAAGAUAUAUGGAGUUAGUAGUGCAACCUGCUCGGUCUGAUGAGUCCCACCGUGGACGAAACAGC	1.706 ± 0.0036	1.81 ± 0.092
GCUGUCACCGAGAAACUGUGAAGUAUAUCUUAAACCUGGGCACUUAAAAGAUAUAUGGAGUUAGUAGUGCAACCUGCUCGGUCUGAUGAGUCCUAUUAUGGACGAAACAGC	1.682 ± 0.011	1.82 ± 0.14
GCUGUCACCGAGAAACUGUGAAGUAUAUCUUAAACCUGGGCACUUAAAAGAUAUAUGGAGUUAGUAGUGCAACCUGCUCGGUCUGAUGAGUCCAUACGCGGACGAAACAGC	1.658 ± 0.014	1.81 ± 0.14
GCUGUCACCGAGAAACUGUGAAGUAUAUCUUAAACCUGGGCACUUAAAAGAUAUAUGGAGUUAGUAGUGCAACCUGCUCGGUCUGAUGAGUCCUUUGAAGGACGAAACAGC	1.59 ± 0.017	1.76 ± 0.1
GCUGUCACCGAGAAACUGUGAAGUAUAUCUUAAACCUGGGCACUUAAAAGAUAUAUGGAGUUAGUAGUGCAACCUGCUCGGUCUGAUGAGUCCGCCGUUGGACGAAACAGC	1.596 ± 0.013	1.77 ± 0.11
GCUGUCACCGAGAAACUGUGAAGUAUAUCUUAAACCUGGGCACUUAAAAGAUAUAUGGAGUUAGUAGUGCAACCUGCUCGGUCUGAUGAGUCCUAUCUGGGACGAAACAGC	1.725 ± 0.011	1.87 ± 0.089
GCUGUCACCGAGAAACUGUGAAGUAUAUCUUAAACCUGGGCACUUAAAAGAUAUAUGGAGUUAGUAGUGCAACCUGCUCGGUCUGAUGAGUCCUAUCUCGGACGAAACAGC	1.81 ± 0.039	1.9 ± 0.1
GCUGUCACCGAGAAACUGUGAAGUAUAUCUUAAACCUGGGCACUUAAAAGAUAUAUGGAGUUAGUAGUGCAACCUGCUCGGUCUGAUGAGUCCUACCAAGGACGAAACAGC	1.66 ± 0.022	1.8 ± 0.12
GCUGUCACCGAGAAACUGUGAAGUAUAUCUUAAACCUGGGCACUUAAAAGAUAUAUGGAGUUAGUAGUGCAACCUGCUCGGUCUGAUGAGUCCGAUUUCGGACGAAACAGC	1.79 ± 0.13	1.9 ± 0.12
GCUGUCACCGAGAAACUGUGAAGUAUAUCUUAAACCUGGGCACUUAAAAGAUAUAUGGAGUUAGUAGUGCAACCUGCUCGGUCUGAUGAGUCCGCGGUAGGACGAAACAGC	1.55 ± 0.046	1.69 ± 0.09
GCUGUCACCGAGAAACUGUGAAGUAUAUCUUAAACCUGGGCACUUAAAAGAUAUAUGGAGUUAGUAGUGCAACCUGCUCGGUCUGAUGAGUCCGGGGUCGGACGAAACAGC	1.654 ± 0.0072	1.79 ± 0.12
GCUGUCACCGAGAAACUGUGAAGUAUAUCUUAAACCUGGGCACUUAAAAGAUAUAUGGAGUUAGUAGUGCAACCUGCUCGGUCUGAUGAGUCCAGUUAAGGACGAAACAGC	1.52 ± 0.08	1.68 ± 0.086
GCUGUCACCGAGAAACUGUGAAGUAUAUCUUAAACCUGGGCACUUAAAAGAUAUAUGGAGUUAGUAGUGCAACCUGCUCGGUCUGAUGAGUCCCGACGGGGACGAAACAGC	1.667 ± 0.013	1.8 ± 0.16
GCUGUCACCGAGAAACUGUGAAGUAUAUCUUAAACCUGGGCACUUAAAAGAUAUAUGGAGUUAGUAGUGCAACCUGCUCGGUCUGAUGAGUCCACGUCGGGACGAAACAGC	1.605 ± 0.011	1.81 ± 0.12
GCUGUCACCGAGAAACUGUGAAGUAUAUCUUAAACCUGGGCACUUAAAAGAUAUAUGGAGUUAGUAGUGCAACCUGCUCGGUCUGAUGAGUCCACGGUGGGACGAAACAGC	1.6002 ± 0.00028	1.74 ± 0.1
